This passage reports Km, kcat and kcat/Km results from patent US6593454B2, “Methods for identifying inhibitors of methionine aminopeptidases” (Saint Louis University, priority 1999, dated 2003).

Substrate in data set [1]: CSCC[C@H](N)C(=O)NCC(=O)N1CCC[C@H]1C(=O)Nc1ccc([N+](=O)[O-])cc1
Description: AccQ-Tag assay, kinetic parameters of the substrate peptide with type 2 MAP. It is filed as biochemical. The note with it: other: human type 2 MAP; substrate Met-Gly-Pro-p-nitroanilide; mean ± SD. The source says: (§1) To determine whether Met-Gly-Pro-p-nitroanilide is a substrate for MAP, and whether the presence of dipeptidyl peptidase could affect the activity of MAP, an AccQ-Tag assay was used as described in Zuo et al., supra.

Substrate in data set [2]: CSCC[C@H](N)C(=O)NCC(=O)N1CCC[C@H]1C(=O)Nc1ccc([N+](=O)[O-])cc1
Description: AccQ-Tag assay, kinetic parameters of the substrate peptide with type 1 MAP. It is filed as biochemical. The note with it: other: yeast type 1 MAP; substrate Met-Gly-Pro-p-nitroanilide; mean ± SD.
Source text: as §1

B1: human type 2 MAP (Homo sapiens) (protein)
chain: MAGVEEVAASGSHLNGDLDPDDREEGAASTAEEAAKKKRRKKKKSKGPSAAGEQEPDKESGASVDEVARQLERSALEDKERDEDDEDGDGDGDGATGKKKKKKKKKRGPKVQTDPPSVPICDLYPNGVFPKGQECEYPPTQDGRTAAWRTTSEEKKALDQASEEIWNDFREAAEAHRQVRKYVMSWIKPGMTMIEICEKLEDCSRKLIKENGLNAGLAFPTGCSLNNCAAHYTPNAGDTTVLQYDDICKIDFGTHISGRIIDCAFTVTFNPKYDTLLKAVKDATNTGIKCAGIDVRLCDVGEAIQEVMESYEVEIDGKTYQVKPIRNLNGHSIGQYRIHAGKTVPIVKGGEATRMEEGEVYAIETFGSTGKGVVHDDMECSHYMKNFDVGHVPIRLPRTKHLLNVINENFGTLAFCRRWLDRLGESKYLMALKNLCDLGIVDPYPPLCDIKGSYTAQFEHTILLRPTCKEVVSRGDDY
B1: in data set [1], the Michaelis-Menten constant (Km) amounted to 3 ± 0.5 mM, the catalytic constant (kcat) turned out to be 8.63 ± 0.583 s⁻¹ and the kcat/Km was found to be 2870 ± 433 M⁻¹ s⁻¹.

B2: yeast type 1 MAP (Saccharomyces cerevisiae S288C) (protein)
chain: MSTATTTVTTSDQASHPTKIYCSGLQCGRETSSQMKCPVCLKQGIVSIFCDTSCYENNYKAHKALHNAKDGLEGAYDPFPKFKYSGKVKASYPLTPRRYVPEDIPKPDWAANGLPVSEQRNDRLNNIPIYKKDQIKKIRKACMLGREVLDIAAAHVRPGITTDELDEIVHNETIKRGAYPSPLNYYNFPKSLCTSVNEVICHGVPDKTVLKEGDIVNLDVSLYYQGYHADLNETYYVGENISKEALNTTETSRECLKLAIKMCKPGTTFQELGDHIEKHATENKCSVVRTYCGHGVGEFFHCSPNIPHYAKNRTPGVMKPGMVFTIEPMINEGTWKDMTWPDDWTSTTQDGKLSAQFEHTLLVTEHGVEILTARNKKSPGGPRQRIK
On to B2, for which, in data set [2], the Km is listed as 4 ± 0.7 mM, the kcat was 14.4 ± 0.417 s⁻¹ and the catalytic efficiency (kcat/Km) worked out at 3600 ± 583 M⁻¹ s⁻¹.
